In IntAct's records for PubMed 16968782:

B1: Nephrin (Homo sapiens), O60500-1 (parent)
chain: MALGTTLRASLLLLGLLTEGLAQLAIPASVPRGFWALPENLTVVEGASVELRCGVSTPGSAVQWAKDGLLLGPDPRIPGFPRYRLEGDPARGEFHLHIEACDLSDDAEYECQVGRSEMGPELVSPRVILSILVPPKLLLLTPEAGTMVTWVAGQEYVVNCVSGDAKPAPDITILLSGQTISDISANVNEGSQQKLFTVEATARVTPRSSDNRQLLVCEASSPALEAPIKASFTVNVLFPPGPPVIEWPGLDEGHVRAGQSLELPCVARGGNPLATLQWLKNGQPVSTAWGTEHTQAVARSVLVMTVRPEDHGAQLSCEAHNSVSAGTQEHGITLQVTFPPSAIIILGSASQTENKNVTLSCVSKSSRPRVLLRWWLGWRQLLPMEETVMDGLHGGHISMSNLTFLARREDNGLTLTCEAFSEAFTKETFKKSLILNVKYPAQKLWIEGPPEGQKLRAGTRVRLVCLAIGGNPEPSLMWYKDSRTVTESRLPQESRRVHLGSVEKSGSTFSRELVLVTGPSDNQAKFTCKAGQLSASTQLAVQFPPTNVTILANASALRPGDALNLTCVSVSSNPPVNLSWDKEGERLEGVAAPPRRAPFKGSAAARSVLLQVSSRDHGQRVTCRAHSAELRETVSSFYRLNVLYRPEFLGEQVLVVTAVEQGEALLPVSVSANPAPEAFNWTFRGYRLSPAGGPRHRILSSGALHLWNVTRADDGLYQLHCQNSEGTAEARLRLDVHYAPTIRALQDPTEVNVGGSVDIVCTVDANPILPGMFNWERLGEDEEDQSLDDMEKISRGPTGRLRIHHAKLAQAGAYQCIVDNGVAPPARRLLRLVVRFAPQVEHPTPLTKVAAAGDSTSSATLHCRARGVPNIVFTWTKNGVPLDLQDPRYTEHTYHQGGVHSSLLTIANVSAAQDYALFTCTATNALGSDQTNIQLVSISRPDPPSGLKVVSLTPHSVGLEWKPGFDGGLPQRFCIRYEALGTPGFHYVDVVPPQATTFTLTGLQPSTRYRVWLLASNALGDSGLADKGTQLPITTPGLHQPSGEPEDQLPTEPPSGPSGLPLLPVLFALGGLLLLSNASCVGGVLWQRRLRRLAEGISEKTEAGSEEDRVRNEYEESQWTGERDTQSSTVSTTEAEPYYRSLRDFSPQLPPTQEEVSYSRGFTGEDEDMAFPGHLYDEVERTYPPSGAWGPLYDEVQMGPWDLHWPEDTYQDPRGIYDQVAGDLDTLEPDSLPFELRGHLV
partner: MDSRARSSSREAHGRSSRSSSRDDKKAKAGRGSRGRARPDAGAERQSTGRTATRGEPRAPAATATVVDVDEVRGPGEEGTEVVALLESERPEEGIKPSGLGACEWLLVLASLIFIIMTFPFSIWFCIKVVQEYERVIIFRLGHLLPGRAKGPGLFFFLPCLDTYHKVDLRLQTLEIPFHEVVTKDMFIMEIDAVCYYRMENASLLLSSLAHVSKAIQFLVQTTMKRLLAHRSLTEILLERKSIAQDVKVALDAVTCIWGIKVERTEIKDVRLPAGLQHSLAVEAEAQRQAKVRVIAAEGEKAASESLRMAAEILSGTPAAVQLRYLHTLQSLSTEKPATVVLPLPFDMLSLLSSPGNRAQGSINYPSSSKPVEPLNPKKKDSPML
B2: Nephrin (Homo sapiens), O60500-1 (parent)
chain: B1 chain

Variants of: B1
Conditions: with podo_mouse Nphs2, Q91X05

| Variant | effect of a mutation on the interaction |
| --- | --- |
| Y1193F | disrupting interaction strength |

Variants of: B2
Conditions: with arrb2_human ARRB2, P32121
Sequence of arrb2_human ARRB2, P32121 (P32121 whole entry): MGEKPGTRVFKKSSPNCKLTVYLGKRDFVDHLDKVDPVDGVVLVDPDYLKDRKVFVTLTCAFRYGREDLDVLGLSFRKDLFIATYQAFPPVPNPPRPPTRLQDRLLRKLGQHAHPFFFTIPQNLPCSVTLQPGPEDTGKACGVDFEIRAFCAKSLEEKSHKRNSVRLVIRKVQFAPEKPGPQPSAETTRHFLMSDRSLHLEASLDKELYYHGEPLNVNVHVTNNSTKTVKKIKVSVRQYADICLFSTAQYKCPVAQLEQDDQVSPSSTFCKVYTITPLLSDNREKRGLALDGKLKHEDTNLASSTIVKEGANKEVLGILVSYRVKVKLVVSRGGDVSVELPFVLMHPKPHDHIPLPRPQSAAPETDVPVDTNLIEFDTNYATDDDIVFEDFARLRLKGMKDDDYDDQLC

| Variant | effect of a mutation on the interaction |
| --- | --- |
| Y1193A | decreasing interaction strength |
